Test results: article PMC11882435

Biological target: RsmA (Pseudomonas aeruginosa) (UniProt O69078)
Assay: EMSA
Conditions: Filter binding: 10 mM Tris-HCl pH 7.5, 100 mM KCl, 10 mM MgCl2, 10 mM DTT, 10 ug/mL heparin, RNase inhibitor, 0.5 nM RNA, 37 C 30 min; Hill coefficient 2

RsmA (Pseudomonas aeruginosa), sequence (O69078 whole entry): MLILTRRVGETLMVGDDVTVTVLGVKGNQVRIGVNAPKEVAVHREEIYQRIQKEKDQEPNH

## rhlI leader
  Kd: 20.9 nM
